B1: DR4 (dsDNA)
DNA 1: CCGTAAGGTCACAGGAGGTCACTCG
DNA 2: CGAGTGACCTCCTGTGACCTTACGG
B2: DR1 (dsDNA)
DNA 1: CCGTAAGGTCACAGGTCACTCG
DNA 2: CGAGTGACCTGTGACCTTACGG
B3: CgDR5 (dsDNA)
DNA 1: GTCCGTGATCACGGGTAGGTCAAACTG
DNA 2: CAGTTTGACCTACCCGTGATCACGGAC
B4: DR5 (dsDNA)
DNA 1: CCGTAAGGTCACCAGGAGGTCACTCG
DNA 2: CGAGTGACCTCCTGGTGACCTTACGG
B5: DR2 (dsDNA)
DNA 1: CCGTAAGGTCACAAGGTCACTCG
DNA 2: CGAGTGACCTTGTGACCTTACGG
B6: DR3 (dsDNA)
DNA 1: CCGTAAGGTCACAGAGGTCACTCG
DNA 2: CGAGTGACCTCTGTGACCTTACGG
B7: DR0 (dsDNA)
DNA 1: CCGTAAGGTCAAGGTCACTCG
DNA 2: CGAGTGACCTTGACCTTACGG

Biological target: rCgTR (Crassostrea gigas, UniProt A0A0F6V015 1-479)
Sequence (A0A0F6V015 entry or part of it): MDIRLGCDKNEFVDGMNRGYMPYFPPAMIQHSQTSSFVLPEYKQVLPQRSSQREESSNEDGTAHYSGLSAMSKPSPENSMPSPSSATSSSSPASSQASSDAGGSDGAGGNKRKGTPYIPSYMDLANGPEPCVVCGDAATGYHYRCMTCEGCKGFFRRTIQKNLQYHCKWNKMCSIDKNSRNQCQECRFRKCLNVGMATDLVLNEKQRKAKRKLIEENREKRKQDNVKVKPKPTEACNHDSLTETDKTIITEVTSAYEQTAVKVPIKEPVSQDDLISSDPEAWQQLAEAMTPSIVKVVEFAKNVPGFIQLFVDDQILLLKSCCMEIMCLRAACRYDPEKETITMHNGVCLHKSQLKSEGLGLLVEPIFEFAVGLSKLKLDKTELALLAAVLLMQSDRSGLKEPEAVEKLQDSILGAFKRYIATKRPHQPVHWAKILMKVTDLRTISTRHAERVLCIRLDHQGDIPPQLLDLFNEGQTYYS
Assay: EMSA; no ligand; LightShift Chemiluminescent EMSA kit (Pierce), manufacturer's instructions; buffer, salt, pH and temperature not stated; 100-fold cold probe competition; anti-His supershift
Settings: protein: recombinant, tags: pET30a, label: biotin, blunt

Binding result, binds:
B1, B2, B3, B4, B5, B6, B7

Biological target: rCgTR1-240 (Crassostrea gigas, UniProt A0A0F6V015 1-240)
Sequence (A0A0F6V015 entry or part of it): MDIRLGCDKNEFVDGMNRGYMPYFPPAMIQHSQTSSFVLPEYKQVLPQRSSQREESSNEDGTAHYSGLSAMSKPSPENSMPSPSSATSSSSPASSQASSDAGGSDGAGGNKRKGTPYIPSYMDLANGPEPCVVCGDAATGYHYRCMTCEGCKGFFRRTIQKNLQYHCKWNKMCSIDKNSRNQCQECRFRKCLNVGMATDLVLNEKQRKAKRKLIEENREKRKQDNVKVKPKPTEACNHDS
Assay: EMSA; no ligand; homodimer and monomer bands; LightShift Chemiluminescent EMSA kit (Pierce), manufacturer's instructions; buffer, salt, pH and temperature not stated; 100-fold cold probe competition; anti-His supershift
Settings: protein: recombinant, tags: pET30a, label: biotin, blunt

Binding result, binds:
B5

From PMC4692385, “Identification of Thyroid Hormones and Functional Characterization of Thyroid Hormone Receptor in the Pacific Oyster Crassostrea gigas Provide Insight into Evolution of the Thyroid Hormone System”
